In patent publication US20220177587A1, “METHODS AND USES OF VARIANT CD80 FUSION PROTEINS AND RELATED CONSTRUCTS” (Alpine Immune Sciences, Inc., priority 2018, published 2022):
Where a chain is given by its changes, count along the chain named. Names may count otherwise.

B1: K89E, K93E, T130A (protein)
chain: VIHVTKEVKEVATLSCGHNVSVEELAQTRIYWQKEKKMVLTMMSGDMNIWPEYKNRTIFDITNNLSIVILALRPSDEGTYECVVLKYEEDAFEREHLAEVTLSVKADFPTPSISDFEIPTSNIRRIICSASGGFPEPHLSWLENGEELNAINTTVSQDPETELYAVSSKLDFNMTTNHSFMCLIKYGHLRVNQTFNWNTTKQEHFPDN
modifications: CD80 v91 ECD
B2: Q27R, R29C, M42T, S129P, E160G (protein)
chain: B1 chain with Q27R, R29C, M42T, E89K, E93K, S129P, A130T, E160G
modifications: CD80 v119 ECD
B3: Y31H, S129P (protein)
chain: B1 chain with Y31H, E89K, E93K, S129P, A130T
modifications: CD80 v106 ECD
B4: I118T, C128R (protein)
chain: B1 chain with E89K, E93K, I118T, C128R, A130T
modifications: CD80 v118 ECD
B5: I69T, L70Q, A91G, T120S (protein)
chain: B1 chain with I69T, L70Q, E89K, A91G, E93K, T120S, A130T
modifications: CD80 v105 ECD
B6: A91G, S129P (protein)
chain: B1 chain with E89K, A91G, E93K, S129P, A130T
B7: S129P, T154A (protein)
chain: B1 chain with E89K, E93K, S129P, A130T, T154A
B8: H18L, R29D, Y31L, Q33H, K36G, M38I, T41A, M43R, M47T, E81V, L85R, K89N, A91T, F92P, K93V, R94L, L97R, T130A, N149S (protein, UniProt P33681 35-288, looked up, variant H18L R29D Y31L Q33H K36G M38I T41A M43R M47T E81V L85R K89N A91T F92P K93V R94L L97R T130A N149S)
T-lymphocyte activation …: VIHVTKEVKEVATLSCGLNVSVEELAQTDILWHKEGKIVLAMRSGDTNIWPEYKNRTIFDITNNLSIVILALRPSDEGTYVCVVRKYENDTPVLEHRAEVTLSVKADFPTPSISDFEIPTSNIRRIICSASGGFPEPHLSWLENGEELSAINTTVSQDPETELYAVSSKLDFNMTTNHSFMCLIKYGHLRVNQTFNWNTTKQEHFPDNLLPSWAITLISVNGIFVICCLTYCFAPRCRERRRNERLRRESVRPV
B9: S21P, R29D, Y31L, Q33H, K36G, M38I, T41A, M43R, M47T, N48I, V68A, E81V, L85R, K89N, A91T, F92P, K93V, R94L,P109H, I126L, K169I (protein)
chain: VIHVTKEVKEVATLSCGHNVPVEELAQTDILWHKEGKIVLAMRSGDTIIWPEYKNRTIFDITNNLSIAILALRPSDEGTYVCVVRKYENDTPVLEHLAEVTLSVKADFHTPSISDFEIPTSNIRRLICSTSGGFPEPHLSWLENGEELNAINTTVSQDPETELYAVSSILDFNMTTNHSFMCLIKYGHLRVNQTFNWNTTKQEHFPDN
B10: R29D, Y31L, Q33H, K36G, M38I, T41A, M43R, M47T, E81V, L85R, K89N, A91T, F92P, K93V, R94L, V22A, I118T, T130A, N149S (protein)
chain: B9 chain with P21S, V22A, I48N, A68V, H109P, I118T, L126I, T130A, N149S, I169K
B11: R29D, Y31L, Q33H, K36G, M38I, T41A, M43R, M47T, E81V, L85R, K89N, A91T, F92P, K93V, R94L, I118V, T120S, T130A, K169E, M174T (protein)
chain: B9 chain with P21S, I48N, A68V, H109P, I118V, T120S, L126I, T130A, I169E, M174T
B12: R29D, Y31L, Q33H, K36G, M38I, T41A, M43R, M47T, E81V, L85R, K89N, A91T, F92P, K93V, R94F, N64S, I118T, T130A, N149S, K169I (protein)
chain: B9 chain with P21S, I48N, N64S, A68V, L94F, H109P, I118T, L126I, T130A, N149S
B13: R29D, Y31L, Q33H, K36G, M38I, T41A, M43R, M47T, E81V, L85R, K89N, A91T, F92P, K93V, R94L, I118T, T130A, N149S (protein)
chain: B9 chain with P21S, I48N, A68V, H109P, I118T, L126I, T130A, N149S, I169K
B14: R29D, Y31L, Q33H, K36G, M38I, T41A, M43R, M47T, E81V, L85R, K89N, A91T, F92P, K93V, R94L, I118T, T130A, N149S, K169I, Q193L (protein)
chain: B9 chain with P21S, I48N, A68V, H109P, I118T, L126I, T130A, N149S, Q193L
B15: R29D, Y31L, Q33H, K36G, M38I, T41A, M43R, M47T, E81V, L85R, K89N, A91T, F92P, K93V, R94L, I118T, T130A, N149S, K169I (protein)
chain: B9 chain with P21S, I48N, A68V, H109P, I118T, L126I, T130A, N149S
B16: R29D, Y31L, Q33H, K36G, M38I, T41A, M43R, M47T, E81V, L85R, K89N, A91T, F92P, K93V, R94L, H18L, V68A, T130A, N149S, T154I (protein)
chain: B9 chain with H18L, P21S, I48N, H109P, L126I, T130A, N149S, T154I, I169K
B17: V22A, R29D, Y31L, Q33H, K36G, M38I, T41A, M43R, M47T, E81V, L85R, K89N, A91T, F92P, K93V, R94L, V68M, T130A (protein)
chain: B9 chain with P21S, V22A, I48N, A68M, H109P, L126I, T130A, I169K
B18: H18L, R29D, Y31L, Q33H, K36G, M38I, T41A, M43R, M47T, E81V, L85R, K89N, A91T, F92P, K93V, R94L, L97R, N149S, H188Q (protein)
chain: B9 chain with H18L, P21S, I48N, A68V, L97R, H109P, L126I, N149S, I169K, H188Q
B19: R29D, Y31L, Q33H, K36G, M38I, T41A, M43R, M47T, E81V, L85R, K89N, A91T, F92P, K93V, R94L, H18L, V68M, T130A (protein)
chain: B9 chain with H18L, P21S, I48N, A68M, H109P, L126I, T130A, I169K
B20: R29D, Y31L, Q33H, K36G, M38I, T41A, M43R, M47T, E81V, L85R, K89N, A91T, F92P, K93V, R94F, T130A, N149S, K169I (protein)
chain: B9 chain with P21S, I48N, A68V, L94F, H109P, L126I, T130A, N149S
B21: T28A, R29D, Y31L, Q33H, K36G, M38I, T41A, M43R, M47T, E81V, L85R, K89N, A91T, F92P, K93V, R94L, V104L, T130A, N149S (protein)
chain: B9 chain with P21S, T28A, I48N, A68V, V104L, H109P, L126I, T130A, N149S, I169K
B22: H18L, R29D, Y31L, Q33H, K36G, M38I, T41A, M43R, M47T, P74L, Y80N, E81V, L85R, K89N, A91T, F92P, K93V, R94L, L97R (protein)
chain: B9 chain with H18L, P21S, I48N, A68V, P74L, Y80N, L97R, H109P, L126I, I169K
B23: R29D, Y31L, Q33H, K36G, M38I, T41A, M43R, M47T, E81V, L85R, K89N, A91T, F92P, K93V, R94L, S21P, P74L, Y80N, D90N, T130A, N149S, E162G (protein)
chain: VIHVTKEVKEVATLSCGHNVPVEELAQTDILWHKEGKIVLAMRSGDTNIWPEYKNRTIFDITNNLSIVILALRLSDEGTNVCVVRKYENNTPVLEHLAEVTLSVKADFPTPSISDFEIPTSNIRRIICSASGGFPEPHLSWLENGEELSAINTTVSQDPETGLYAVSSKLDFNMTTNHSFMCLIKYGHLRVNQTFNWNTTKQEHFPDN
B24: R29D, Y31L, Q33H, K36G, M38I, T41A, M43R, M47T, E81V, L85R, K89N, A91T, F92P, K93V, R94L, H18L, P74L, Y80N, T130A, R190S (protein)
chain: B23 chain with H18L, P21S, N90D, S149N, G162E, R190S

Tested on: human pan T cells
Assay: Anti-CD3 coimmobilization assay, IFN-gamma
Type: cell-based
Conditions: Table E34; culture supernatant, 3 days
Procedure: Costimulatory bioactivity of CD80 fusion variants was determined in anti-CD3 coimmobilization assays. 1 nM or 4 nM mouse anti-human CD3 (OKT3, Biolegends, USA) was diluted in PBS with 1 nM to 80 nM rCD80.Fc variant proteins. This mixture was added to tissue culture treated flat bottom 96-well plates (Corning, USA) overnight to facilitate adherence of the stimulatory proteins to the wells of the plate. The next day, unbound protein was washed off the plates and 100,000 purified human pan T cells (BenTech Bio, US) or human T cell clone BC3 (Astarte Biologics, USA) were added to each well in a final volume of 200 μl of Ex-Vivo 15 media (Lonza, Switzerland). Cells were cultured 3 days before harvesting culture supernatants and measuring human IFN-gamma levels with Duoset ELISA kit (R&D Systems, USA) as described above.

Point of comparison: B23, “Anti-CD3 IFN-gamma Coimmobilization Assay” value 54 pg/mL. Against it:
- B1 — 11-fold higher, 571 pg/mL
- B2 — 2.6-fold higher, 139 pg/mL
- B3 — within 1.5-fold, 76 pg/mL
- B4 — 2.3-fold higher, 122 pg/mL
- B5 — 9.4-fold higher, 509 pg/mL
- B6 — lower, 0 pg/mL
- B7 — 2.9-fold higher, 156 pg/mL
- B8 — 1.8-fold higher, 96 pg/mL
- B9 — 2.5-fold higher, 137 pg/mL
- B10 — 2.3-fold higher, 124 pg/mL
- B11 — 2.6-fold higher, 141 pg/mL
- B12 — 1.8-fold lower, 30 pg/mL
- B13 — 1.6-fold higher, 89 pg/mL
- B14 — 2.4-fold higher, 130 pg/mL
- B15 — 1.9-fold higher, 101 pg/mL
- B16 — 2.4-fold higher, 132 pg/mL
- B17 — 1.8-fold higher, 96 pg/mL
- B18 — 2.3-fold higher, 125 pg/mL
- B19 — within 1.5-fold, 51 pg/mL
- B20 — 2.1-fold higher, 114 pg/mL
- B21 — 2.1-fold higher, 116 pg/mL
- B22 — 3-fold lower, 18 pg/mL
- B24 — 6.8-fold lower, 8 pg/mL
